# Measured values published in article PMC9231621 (Proceedings of the National Academy of Sciences of the …, 2022).
# B1: MPV454 (antibody, V domains shown)
# VH: QVQLVESGGGLVKPGGSLRLSCSTSGFVFSSYAMHWVRQAPGKGLEHVSAISSTGDNTHYADSVKGRFTISRDNSRGRLYLQMTSVRPEDAALYYCVKDLYSGRFYYFLDDWGQGTRIIVSS
# VL: DIQVTQSPSSLSASVGDRVTISCRASQNISNYLNWFQQRPGKAPKLLIYVASTLQSGAPSRFSGSGSGTDFTLTITDLQPEDFATYYCQQSYNTPPITFGQGTRLEIK
# B2: MPV482 (antibody, V domains shown)
# VH: QVQLVQSGGGVVQPGRSLRLSCAASGFTFSSFAMHWVRQAPGKGLEWVALISDDGNNKYHADSVKGRFTISRDSSKNTLYLQMNSLRGEDTAVYYCARDGSVVGAAAHCDHWGQGTLVTVSS
# VL: SYELTQPPSVSVSPGQTARITCSGDALPNQCAYWYQQKPGLAPVLLIYKDKERPSGIPERFSGSISGTTVTLTISGVQAEDEADYYCQSSDSSSTVVFGGGTKLTVL
# B3: MPV486 (antibody, V domains shown)
# VH: QVQLVESGGHLVQSGGSLRLSCAASGFTFSNYILNWVRQAPGKGLEWISYITGGSSAIYYADSVKGRFTISRDDAKNSLYLQMNNLRAEDTAVYYCARSHGYDSSGYYYYFAMDVWGQGTTVTVSS
# VL: QSVLTQPPSASGTPGQRVTISCSGSNSNIESNTVNWYQQIPGTAPKLLIYSDNRRPSGVPDRFSGSKSGTSASLAISGLQSEDEADYYCAAWDDSLIGYVFGTGTKVTV
# B4: MPV481 (antibody, V domains shown)
# VH: QVQLVQSGGGLVKPGGSLRLSCAASGLPFNNAWMNWVRQAPGKGLEWVGRIKSKIDGGTTEYAAPVKGRFTISRDDSENTLYLQMNSLRTEDTAVYYCTTEYYALLSGNYSDCWGQGTLVTVSS
# VL: IRLMTQSPFSLSLSPGERATLSCRASQSIKRAYLGWYQQKPGQAPRLLIYGASNRATGIPDRFSGSGSGTDFTLTISRLEPEDFAVYYCQQYGDSPGGSFGQGTKLEIR
# B5: MPV464 (antibody, V domains shown)
# VH: QVQLQESGPGLVKPSQTLSLTCTVSGGSVRGGGDYWSWIRRPPGKGLEWIGHIYNSGTTFYNPSLKSRVTISIDTSKNQFSLKLRSVTAADTAVYYCGRVGSRATGLPDWIDPWGQGTLVTVSS
# VL: SYELTQPPSVSVSPGQTATITCSGTNLGAKYSCWYQQKPGQSPVLVIFQDNKRASGIPARFSASTSGDTATLTISGTQVMDEADYFCQAWDSRTAVFGGGTTLTV
# B6: MPV491 (antibody, V domains shown)
# VH: QVQLQESGPGLVKSSQTLSLTCTVSGGSISSVTSHWTWIRQHPGKGLEWIGYIFSSGTTYYSPSLRSRLTMSVDTSKNQFSLQLSSVTAADTAMYYCARGIYCGDSCYKGTDYWGRGTLVTVSS
# VL: IRLMTQTPVTLPVTPGEPASISCRSSQSLLHSNGYNYLDWYLQKPGQSPQLLIYRGSTRASGVPDRFSGSGSGTEFTLKISRVEAEDVGVYYCMQGLQTPYTFGQGTKLESR
# B7: MPV485 (antibody, V domains shown)
# V domain 1: QVQLQEPGPGLVKPSETLSLTCTVSGGSISSTNSFWGWVRQPPGKGLEWIGSIYYSGTTYYNSSLKSRVTISVDTSKNQFSLRLSSVTAADTAVYYCARQGLTSSWYDGSGLDVWG
# V domain 2: SYELTQPPSVSVSPGQTASITCSGDKLGNKYACWYQQRPGQSPVLVIYQDTKRPSGIPERFSGSNSGNTATLTISGTQAMDEADYYCQAWDSNTVVFGGGTKLTVL
# Key:
# [1] = target: hMPV A1 F trimer (heated), postfusion hMPV F (human metapneumovirus subgroup A1; …, UniProt H6X1Z1, strain)
# [2] = target: hMPV A1 F monomer (trypsinized monomeric prefusion hMPV F) (human metapneumovirus subgroup A1; …, UniProt H6X1Z1, strain)
Binder,binding result [1],binding result [2]
B1,binds,binds
B2,binds,binds
B3,binds,binds
B4,binds,binds
B5,binds,binds
B6,binds,binds
B7,binds,binds
